Key:
Peptide F4-BSA = molecular target: T1, Peptide F4-BSA (C-terminal Cys conjugated to BSA); test: Western blot, 300 ng antigen per well, anti-rabbit IgG (Fc specific)-HRP 1:4000
T1 construct: BSA-conjugated human FAM19A5 peptide fragment F4, lane 6; size printed as 106 kDa
T1 peptide: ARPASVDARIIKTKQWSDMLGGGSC

Peptide F6-BSA = molecular target: T2, Peptide F6-BSA (C-terminal Cys conjugated to BSA); test: as above
T2 construct: BSA-conjugated human FAM19A5 peptide fragment F6, lane 8; size printed as 103 kDa
T2 peptide: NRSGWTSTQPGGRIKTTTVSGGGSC

Peptide F1-BSA = molecular target: T3, Peptide F1-BSA (C-terminal Cys conjugated to BSA); test: as above
T3 construct: BSA-conjugated human FAM19A5 peptide fragment F1, lane 3; size printed as 105 kDa
T3 peptide: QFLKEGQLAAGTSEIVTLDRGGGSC

FAM19A1-flag = test: immunoblot of vector and flag-tagged FAM19A1 to FAM19A5 samples

B1: 1-65-scFv-rabbit-Fc-SSS (Fc fusion)
VH: AVTLDESGGGLQTPGGALSLVCKASGFTFSSYQMGWVRQAPGKGLEWVGVINKSGSDTSYGSAVKGRATISRDNGQSTVRLQLNNLRAEDTGTYFCAKGSASYITAATIDAWGHGTEVIVSS
VL: ALTQPSSVSANPGETVKITCSGGGSSGYGYGWYQQKSPSSAPLTVIYWNDKRPSDIPSRFSGSKSGSTHTLTITGVQAEDEAVYFCGNDDYSSDSGYVGVFGAGTTLTVL
notes: scFv of 1-65 fused to rabbit Fc ('SSS'), used as primary antibody in the Western blot; also called anti-FAM19A5 antibody 1-65; monoclonal antibody clone 1-65
**Q.** What does the source list for B1?
**A.** binding result (Peptide F4-BSA): no binding (tested: 2 ug/ml); binding result (Peptide F6-BSA): no binding (tested: 2 ug/ml); binding result (Peptide F1-BSA): no binding (tested: 2 ug/ml)

B2: chimeric anti-FAM19A5-IgG2/4 monoclonal antibody (1-65) (antibody, V domains shown)
VH: B1 VH
VL: B1 VL
notes: also called anti-FAM19A5-IgG2/4 antibody
**Q.** Does B2 bind (FAM19A1-flag)?
**A.** Result: no binding

From patent publication US20230357378A1 (NEURACLE SCIENCE, published 2023)
